Assay: yeast display, Sf9 membrane polyspecificity reagent, FACS + sequencing; frameworks hold sequencing errors
Procedure, shortened: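 A synthetic nanobody library was expressed on Saccharomyces cerevisiae BJ5465 by galactose induction for 36–48 hours. The library was stained for 1 hour at 4 °C with 10% biotinylated, detergent-solubilized Sf9 membrane reagent and enriched with streptavidin microbeads before FACS. Low and high (top ~1%) gates were set on anti-HA fluorescence for expression and streptavidin fluorescence for reagent binding, and each polyreactivity label reflects the gate of origin.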

QVQLVESGGGLVQAGGSLRLSCAASGRIFSYYAMGWYRQAPGKERELVAAITRRDGRTYYADSVKGRFTISRDNAKNTVYLQMNSLKPEDTAVYYCAAYLAASYDWGQGTQVTVSS
polyreactivity (PSR sort gate): low polyreactivity

QVQLVESGGGLVQAGGSLRLSCAASGRIFSYYAMGWYRQAPGKERELVATISGSGGSTYYADSVKGRFTISRDNAKNTVYLQMNSLKPEDTAVYYCAATGFIFRGRVRAIPRRYNYWGQGTQVTVSS
polyreactivity (PSR sort gate): high polyreactivity

QVQLVESGGGLVQAGGSLRLSCAASGRIFSYYAMRWFRQAPGKERELVAAISSGGSTNYADSVKGRFTISRDNAKNTVYLQMNSLKPEDTAVYYCNAVRGWTTRYDYWGQGTQVTVSS
polyreactivity (PSR sort gate): high polyreactivity

QVQLVESGGGLVQAGGSLRLSCAASGRIFSYYDMGWYRQAPGKERELVAAITWGGGSTYYADSLKGRFTISRDNAKNTVYLHMNSLKPEDNAVFYSAADWSPSIWEYDYWGQGTEVTVSS
polyreactivity (PSR sort gate): low polyreactivity

QVQLVESGGGLVQAGGSLRLSCAASGRIFSYYGMGWYRQAPGKERELVAAITWRGSTTNYADSVKGRFTISRDNAKNTVYLQMNSLKPEDTAVYYCAPLHSAGYAYDYWGQGTQVTVSS
polyreactivity (PSR sort gate): high polyreactivity

QVQLVESGGGLVQAGGSLRLSCAASGRIFSYYTMGWYRQAPGKERELVAAISSGGSTNYADSVKGRFTISRDNAKNTVYLQMNSLKPEDTAVYYCAVRSGRRNYDRPAFGYWGQGTQVTVSS
polyreactivity (PSR sort gate): high polyreactivity

QVQLVESGGGLVQAGGSLRLSCAASGRIFSYYTMGWYRQAPGKERELVAAITASDGDTYYADSVKGRFTISRDNAKNTVYLQMNSLKPEDTAVYYCNAELFSVNGYDYWGQGTQVTVSS
polyreactivity (PSR sort gate): low polyreactivity

QVQLVESGGGLVQAGGSLRLSCAASGRIFTAYAMGWYRQAPGKERELVAAISSGDSTYYADSVKGRFTISRDNAKNTVYLQMNSLKPEDTAVYYCATGVYPDFEYDSWGQGTQVTVSS
polyreactivity (PSR sort gate): low polyreactivity

QVQLVESGGGLVQAGGSLRLSCAASGRIFTAYAMVWYRPAPGKERELVAAISSGDSTYYADSVKGRFTISRDNAKNTVYLQKNSLKPEETAVYSCATGVYPDFEYDSWGQGTQVTVSS
polyreactivity (PSR sort gate): low polyreactivity

QVQLVESGGGLVQAGGSLRLSCAASGRIFTDYAMAWYRQAPGKEREFVAAINKSGGSTYYADSVKGRFTISRDNAKNTVYLEMNSLKPEDTAVYYCAKSLGQTDWEYDSWGQGTQVTVSS
polyreactivity (PSR sort gate): low polyreactivity

QVQLVESGGGLVQAGGSLRLSCAASGRIFTDYDMGGYRHAPGKERELVASISGSDGNTDYADSVKGRFTISRDNAKNTVYLQMNSLKPEDTAVYYCAADLRVYDFFRYPETYGYWGQGTQVTVSS
polyreactivity (PSR sort gate): low polyreactivity

QVQLVESGGGLVQAGGSLRLSCAASGRIFTFNAMGWYRQAPGKERELVAAGSTYYADSVKGRFTISRDNAKNTVYLQMNSLKPEDTAVYYCAVEDLGSEGWGWYKEMDYWGQGTQVTVSS
polyreactivity (PSR sort gate): low polyreactivity

QVQLVESGGGLVQAGGSLRLSCAASGRIFTFYAMGWYRQAPGKARELVASITGGGNTYYADSVKGRFTISRDNAKNTVYLQMNSLKPEDTAVYYCNADEWRWDEIIPYAVDYWGQGTQVTVSS
polyreactivity (PSR sort gate): low polyreactivity

QVQLVESGGGLVQAGGSLRLSCAASGRIFTGNALGWYRQAPGKESELVAAITRNGGSTYYADSVKGRFTLSRDNAKNTVYVQMNSLKPEDTAVYYCAAKLSPVYYRRYDYWGQGTQVTVSS
polyreactivity (PSR sort gate): high polyreactivity

QVQLVESGGGLVQAGGSLRLSCAASGRIFTGNVMGWYRQAPGKERELVAAISRRGGGTYYADSVKGRFTISRDNAKNTVYLQMNSLKPEDTAVYYCAAQYRSQGQPKGGVLYYYWGQGTQVTVSS
polyreactivity (PSR sort gate): high polyreactivity

QVQLVESGGGLVQAGGSLRLSCAASGRIFTGNVMGWYRQAPGKERELVAAITYRRGSTYYADSVKGRFTISRDNAKNTVYLQMNSLKPEDSAVYYCNTGWDPYGYDYWGQGTQVTVSS
polyreactivity (PSR sort gate): low polyreactivity

QVQLVESGGGLVQAGGSLRLSCAASGRIFTGYAMGWYRQAPGKERELVASITWRGGSTSYADSVKGRFTISRDNAKNTVYLQMNSLKPEDTAVYYCAAQKWYYPYYWGQGTQVTVSS
polyreactivity (PSR sort gate): high polyreactivity

QVQLVESGGGLVQAGGSLRLSCAASGRIFTGYDMGWYRQAPGKERELVAAISRGGSTNYADSVKGRFTISRDNAKNTVYLQMNSLKPEDTAVYYCADGVHWDRGDYWVQGTQVTVSS
polyreactivity (PSR sort gate): low polyreactivity

QVQLVESGGGLVQAGGSLRLSCAASGRIFTHNAMGWYRQAPGKEREVVAAISYSGVSTYYADSVKGRFTISRDNAKNTVYLQRNSLNTDDTAVYFCARRYWYPDAFYRYDYWGQGTPVTVSS
polyreactivity (PSR sort gate): low polyreactivity

QVQLVESGGGLVQAGGSLRLSCAASGRIFTHYAMGWYRQAPGKERELVASISWSGGSTNYADSVKGRFTMSRDNAMNTVYLQMNSLKPEDTAVYYCARKYRYLFATFDYWGQGTQVTVSS
polyreactivity (PSR sort gate): high polyreactivity

QVQLVESGGGLVQAGGSLRLSCAASGRIFTIYAMGWYRQAPGKERELVAAITRGGNTNYADSVKGRFTISRDNAKNTVYLQMNSLKPEDTAVYYCAARANVYTKKRDYWGQGTQVTVSS
polyreactivity (PSR sort gate): high polyreactivity

QVQLVESGGGLVQAGGSLRLSCAASGRIFTKNTMGWYRQAPAQERELVAAIRSRAGSTYYADSVKGRFTISRDNEKNTVYLQMNSLKPEDTAVYYCAVRWFRSVDFDYWGQGTQVTVSS
polyreactivity (PSR sort gate): low polyreactivity

QVQLVESGGGLVQAGGSLRLSCAASGRIFTKYAMGWYRQAPGKERELVAAISQIGGSTYYADSVKGRFTISRDKAKNTVYLQMNSLKPEDTAVYYCAARWREASYRYENWGQGTQVTVSS
polyreactivity (PSR sort gate): high polyreactivity

QVQLVESGGGLVQAGGSLRLSCAASGRIFTKYAMGWYRQAPGKERELVAAITTSGGSTYYADSVKGRFTISRDNAKNTVYLQMNSLKPEDTAVYYCAARTYHRYDYWGQGTQVTVSS
polyreactivity (PSR sort gate): high polyreactivity

QVQLVESGGGLVQAGGSLRLSCAASGRIFTLYAMGWYRQAPGTERELVAAITYTGANTYYADSVKGRFTISRDNAKNTVYLQMNSLKPEDTAVYYCAASGYYYDYWGQGTQVTVSS
polyreactivity (PSR sort gate): high polyreactivity

QVQLVESGGGLVQAGGSLRLSCAASGRIFTLYTMGWYRQAPGKERELVAAISSSGGRTYYADSVKGRFTISRDNAKNTVYLQMNSLKPEDTAVYYCNAGYWYYGQDDYWGQGTQVTVSS
polyreactivity (PSR sort gate): high polyreactivity

QVQLVESGGGLVQAGGSLRLSCAASGRIFTNYAMGWYRPAPGKEREYVAAISWSGGSTYYADSVKGRFTISRDNAKNTVYLQMNSLKPEYTAVYYCAAVGYAGLPYGLRPNNSGYWGQGTQVTVSS
polyreactivity (PSR sort gate): low polyreactivity

QVQLVESGGGLVQAGGSLRLSCAASGRIFTNYVMGWYRQAPGKERELVAAISKSGSRTYYADSVKGRFTISRDNAKNTVYLQMNSLKPEDTAVYYCAKVDTPGSQRYITPDEGPEYEYWGQGTQVTVSS
polyreactivity (PSR sort gate): high polyreactivity

QVQLVESGGGLVQAGGSLRLSCAASGRIFTQNAMGWYRQAPGKERELVAAITSGGSTYYADSVKGRFTISRDNAKNTVYLQMNSLKPEDTAVYYCAAEYGTYFVRYYAGASYRYGYWGQGTQVTVSS
polyreactivity (PSR sort gate): low polyreactivity

QVQLVESGGGLVQAGGSLRLSCAASGRIFTQNAMGWYRQAPGKERELVAAITSGGSTYYADSVKGRFTISRDNAKNTVYLQMNSLKPEDTAVYYCAKRYPYYLSTMEYWGQGTQVTVSS
polyreactivity (PSR sort gate): low polyreactivity

QVQLVESGGGLVQAGGSLRLSCAASGRIFTQYAMGWYRPAPGKERELVAAINASDGSTYADSVKGRFTISRDNAKNTVYLQMNSLKPEDPAVYYCNVTGGPYDFTRWSEFDHWGQGTQVTVSS
polyreactivity (PSR sort gate): low polyreactivity

QVQLVESGGGLVQAGGSLRLSCAASGRIFTQYTMGCYRQAPGKERELVAAINYSGGRTNYADSVKGRFTISRDNAKNTVYLQMNSLKPEDTAVYYCAAGYRRATYGYWGQGTQVTVSS
polyreactivity (PSR sort gate): high polyreactivity

From the nanobody polyreactivity screen of Harvey et al. (2022)
